Measurements reported in EP4722249A1 (AIMED BIO INC., dated 2026).
Substitutions are numbered along the chain they refer to.

Legend:
[1] = target: T1, human CD200R1 on cells (HH, Jurkat-CD200R1, U937-CD200R1) (human) (UniProt Q8TD46); experiment: flow cytometry, Jurkat-CD200R cells
T1 sequence (looked up): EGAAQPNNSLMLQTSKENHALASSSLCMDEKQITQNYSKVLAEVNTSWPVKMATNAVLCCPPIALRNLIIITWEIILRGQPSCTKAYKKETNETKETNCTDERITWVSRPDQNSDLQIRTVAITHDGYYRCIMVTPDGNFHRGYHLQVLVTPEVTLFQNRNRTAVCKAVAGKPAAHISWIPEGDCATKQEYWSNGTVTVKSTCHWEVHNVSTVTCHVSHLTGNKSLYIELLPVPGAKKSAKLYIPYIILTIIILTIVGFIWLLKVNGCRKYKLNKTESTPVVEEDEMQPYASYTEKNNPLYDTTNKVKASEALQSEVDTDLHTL

[2] = target: T1, human CD200R1 on cells (HH, Jurkat-CD200R1, U937-CD200R1) (human); experiment: cell-based or functional assay
[3] = target: T1, human CD200R1 on cells (HH, Jurkat-CD200R1, U937-CD200R1) (human); experiment: flow cytometry, HH cells
[4] = target: T1, human CD200R1 on cells (HH, Jurkat-CD200R1, U937-CD200R1) (human); experiment: flow cytometry, U937-CD200R cells
[5] = target: T2, human CD200R1 recombinant protein (human) (UniProt Q8TD46); experiment: ELISA of hybridoma clones on human CD200R1
T2 sequence (looked up): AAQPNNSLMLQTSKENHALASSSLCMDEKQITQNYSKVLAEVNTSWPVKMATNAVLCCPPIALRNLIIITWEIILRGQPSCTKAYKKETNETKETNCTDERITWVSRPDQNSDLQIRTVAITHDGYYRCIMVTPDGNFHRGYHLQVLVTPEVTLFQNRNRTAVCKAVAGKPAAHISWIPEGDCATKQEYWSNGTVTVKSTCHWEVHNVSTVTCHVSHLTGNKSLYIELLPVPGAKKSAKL

[6] = target: T3, mouse CD200R1 protein (R&D systems, 2554-CD) (mouse, UniProt Q9ES57 26-238); experiment: ELISA on coated mouse CD200R1 protein
T3 construct: the same entry is used
T3 sequence (looked up): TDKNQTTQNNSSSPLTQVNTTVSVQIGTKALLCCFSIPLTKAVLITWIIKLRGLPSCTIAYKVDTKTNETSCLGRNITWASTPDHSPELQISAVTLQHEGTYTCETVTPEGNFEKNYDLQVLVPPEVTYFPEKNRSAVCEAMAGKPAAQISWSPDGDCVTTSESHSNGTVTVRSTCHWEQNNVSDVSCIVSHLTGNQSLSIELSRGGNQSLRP

## LY3454738 (US 2020/0087395, I-4P, Eli Lilly) (antibody)
[1]
  EC50: 43.5 nM
[2]
  EC50 (nM), degree of signal transduction by the Dok2 protein, Jurkat-CD200R1 reporter cells: > 10000 nM
  IC50 (nM) of IL-6 suppression, LPS-treated U937-CD200R1 cells: 1.72 nM
  IC50 (nM) of TNF-α suppression, LPS-treated U937-CD200R1 cells: 6.03 nM
  IL-6 (pg/ml), LPS-treated U937-CD200R1 cells, log [Ab] (M) -7: 523 pg/ml
  IL-6 (pg/ml), LPS-treated U937-CD200R1 cells, log [Ab] (M) -8: 1330 pg/ml
  IL-6 (pg/ml), LPS-treated U937-CD200R1 cells, log [Ab] (M) -9: 2670 pg/ml
  IL-6 (pg/ml), LPS-treated U937-CD200R1 cells, log [Ab] (M) -10: 3380 pg/ml
  IL-6 (pg/ml), LPS-treated U937-CD200R1 cells, log [Ab] (M) -11: 3550 pg/ml
  IL-6 (pg/ml), LPS-treated U937-CD200R1 cells, log [Ab] (M) -12: 4530 pg/ml
  RLU (a.u.), phospho-Dok2 luminescence, Jurkat-CD200R1 reporter cells, antibody dose 0.05 nM: 9260 a.u.
  RLU (a.u.), phospho-Dok2 luminescence, Jurkat-CD200R1 reporter cells, antibody dose 0.10 nM: 8400 a.u.
  RLU (a.u.), phospho-Dok2 luminescence, Jurkat-CD200R1 reporter cells, antibody dose 0.20 nM: 8000 a.u.
  RLU (a.u.), phospho-Dok2 luminescence, Jurkat-CD200R1 reporter cells, antibody dose 0.39 nM: 8960 a.u.
  RLU (a.u.), phospho-Dok2 luminescence, Jurkat-CD200R1 reporter cells, antibody dose 0.78 nM: 8900 a.u.
  RLU (a.u.), phospho-Dok2 luminescence, Jurkat-CD200R1 reporter cells, antibody dose 1.56 nM: 9100 a.u.
  RLU (a.u.), phospho-Dok2 luminescence, Jurkat-CD200R1 reporter cells, antibody dose 3.13 nM: 9470 a.u.
  RLU (a.u.), phospho-Dok2 luminescence, Jurkat-CD200R1 reporter cells, antibody dose 6.25 nM: 8930 a.u.
  RLU (a.u.), phospho-Dok2 luminescence, Jurkat-CD200R1 reporter cells, antibody dose 12.5 nM: 13000 a.u.
  RLU (a.u.), phospho-Dok2 luminescence, Jurkat-CD200R1 reporter cells, antibody dose 25 nM: 22700 a.u.
  RLU (a.u.), phospho-Dok2 luminescence, Jurkat-CD200R1 reporter cells, antibody dose 50 nM: 25600 a.u.
  TNF-α (pg/ml), LPS-treated U937-CD200R1 cells, log [Ab] (M) -7: 472 pg/ml
  TNF-α (pg/ml), LPS-treated U937-CD200R1 cells, log [Ab] (M) -8: 1040 pg/ml
  TNF-α (pg/ml), LPS-treated U937-CD200R1 cells, log [Ab] (M) -9: 1480 pg/ml
  TNF-α (pg/ml), LPS-treated U937-CD200R1 cells, log [Ab] (M) -10: 3760 pg/ml
  TNF-α (pg/ml), LPS-treated U937-CD200R1 cells, log [Ab] (M) -11: 4950 pg/ml
  TNF-α (pg/ml), LPS-treated U937-CD200R1 cells, log [Ab] (M) -12: 5490 pg/ml
[3]
  EC50: 82.7 nM
[4]
  EC50: 152 nM

B1: 6A10 (antibody, V domains shown)
VH: QLQQSGAELVRSGASVKLSCTASGFNIKDYYLHWIKQRPEQGLEWIGWIDPENGDTEYAPKFQGKATMTADTSSNTAYLQLISLTSEDAAVYYCFAGGSYWGQGTSVTVSS
VL: DIVMTQSPSSLSVSAGEKVTMSCKSSQSLLNSGNQKNYLAWYQQKPGQPPKLLIYGASTRESGVPDRFTGSGSGTDFTLTISSVQAEDLAVYYCQNDHSYPYTFGGGTKLEIK
[5]
  ELISA O.D.: > 1.5 O.D.

B2: 5E9 (antibody, V domains shown)
VH: QVQLQQSGAELARPGASVKLSCKASGYTFTSYWMQWVKQRPGQGLEWIGAIYPGDGDTRYTQKFKGKATLTADKSSSTAYMQLRSLASEDSAVFYCARGGVTTLVPYFFDYWGQGATLTVSS
VL: DVLMTQTPLSLPVSLGDQASISCRSSQSIVHSNGNTYLEWYLQKPGQSPKLLIYKVSNRFSGVPDRFSGSGSGTDFTLKISRVEAEDLGVYYCFQGSHVPPTFGGGTKLEIK
[5]
  ELISA O.D.: > 1.5 O.D.

B3: 6C3 (antibody, V domains shown)
VH: QVQLQQPGAELVRPGASVKLSCKASAYTFTSYWMNWVKQRPEQGLEWIGRIDPYDSETHYNQKFKDKAILTVDKSSSTAYMQLSSLTSEDSAVYYCARVDGNHLFDYWGQGTTLTVSS
VL: DIKMTQSPSSMYASLGERVTITCKASQDINSYLSWFQQKPGKSPKTLIYRANRLVDGVPSRFSGSGSGQDYSLTISSLEYEDMGIYYCLQYDEFPYTFGGGTKLEIK
[5]
  ELISA O.D.: > 1.5 O.D.

B4: P001015 (antibody, V domains shown)
VH: EVQLLESGGGLVQPGGSLRLSCAASGFTFSSYDMSWVRQVPGKGLEWVSWISHGGGSIYYADSVKGRFTISRDNSKNTLYLQMNSLRAEDTAVYYCARDAPAYSAPLFDYWGQGTLVTVSS
VL: QSVLTQPPSASGTPGQRVTISCSGSSSNIGNNAVNWYQQLPGTAPKLLIYYDSNRPSGVPDRFSGSKSGTSASLAISGLRSEDEADYYCAAWDDSLSGYVFGGGTKLTVL
[6]
  binding result: no binding (tested: up to 300 nM)

B5: 1H10 (antibody, V domains shown)
VH: QVQLQQPGAELVKPGTSVKLSCKASGYNFTSYWINWVKLRPGQGLEWIGDINPGSGSTNYNEKFRSKATLTVGTSSSTAYMQLSSLASEDSALYYCAREDYYGSRFFYWGQGTLVTVSA
VL: DVVMTQTPLSLPVSLGDQASISCRSSQSLVHSNGNTYLHWYLQKPGQSPKLLIYKVSNRFSGVPDRFSGSGSGTDFTLKISRVEAEDLGVYFCSQSTHVTFGAGTKLELK
[5]
  ELISA O.D.: > 1.5 O.D.

B6: 1F1 (antibody, V domains shown)
VH: QVQLQQPGAEFVKPGAPVKLSCKASGYTFTSYWMNWVKQRPGRGLEWIGRIDPADSEIHYNQKFKDKATLTVDKSSSTAYIQFSSLTSEDSAVYYCARSGGWLPGFAYWGQGTLVTVSA
VL: ENVLTQSPAIMSASPGEKVTMTCSASSSLIYMHWYQQKSSTSPKLWIYDTSKLASGVPGRFSGSGSGNSYSLTINSMEAEDVATYYCFQGSGYPLMYTFGGGTKLEIK
[5]
  ELISA O.D.: > 1.5 O.D.

B7: 3G4 (antibody, V domains shown)
VH: B6 VH with F11L, Y27F, F29L, A54S, I58T, F83L, S84T
VL: B6 VL with S26R, L29V, I30S, S40R, N75S, Y93D
[5]
  ELISA O.D.: > 1.5 O.D.

B8: 6A8 (antibody, V domains shown)
VH: B6 VH with F11L, A54S, I58T, F83L
VL: B6 VL with I30S, H33L, N75S, A83G, Y93N
[5]
  ELISA O.D.: > 1.5 O.D.
